# According to patent US5599792A, “Bone-stimulating, non-vasoactive parathyroid hormone variants” (Allelix Biopharmaceuticals Inc., priority 1994, dated 1997):
# Substitutions are numbered along the chain they refer to.
# B1: [Val^8 Leu^18 ]hPTH (protein, UniProt P01270 32-115, looked up, variant M8V M18L)
# Parathyroid hormone: SVSEIQLVHNLGKHLNSLERVEWLRKKLQDVHNFVALGAPLAPRDAGSQRPRKKEDNVLVESHEKSLGEADKADVNVLTKAKSQ
# modifications: Parathyroid hormone
# B2: [Cys^8 Leu^18 ]hpTH (protein, UniProt P01270 32-115, looked up, variant M8C M18L)
# Parathyroid hormone: B1 Parathyroid hormone with V8C
# B3: [Cys^8 ]hPTH (protein, UniProt P01270 32-115, looked up, variant M8C)
# Parathyroid hormone: B1 Parathyroid hormone with V8C, L18M
# B4: [Ala^8 ]hPTH (protein, UniProt P01270 32-115, looked up, variant M8A)
# Parathyroid hormone: B1 Parathyroid hormone with V8A, L18M
# modifications: Parathyroid hormone
# B5: [Lys^8 Leu^18 ]: structurally related human PTH variant presented for comparison; Met8 replaced by Lys, Leu at 18 (protein, UniProt P01270 32-115, looked up, variant M8K M18L)
# Parathyroid hormone: B1 Parathyroid hormone with V8K
# modifications: Parathyroid hormone
# System: rat osteosarcoma cells of the UMR line (UMR-106), adenylate cyclase activity
# Test: UMR-106 based adenylate cyclase assay (cAMP formation)
# Type: cell-based
# Conditions: UMR-106 cells, radiometric cAMP formation; read-out: EC50 (concentration of PTH or variant effective for half-maximal stimulation of adenylate cyclase activity)
# Excerpt: In the present specification, "bone stimulating activity" is defined in the context of the osetosarcoma-based adenylate cyclase assay employed conventionally in the art. Briefly, this assay provides an in vitro determination of the extent to which PTH stimulates adenylate cyclase activity in rat osteosarcoma cells of the `UMR` lineage, and thus provides an indication of PTH effects on bone tissue in vivo. Protocols for conducting the assay have been described by Rodan et al, 1983, J. Clin. Invest., 72:1511 (in which the osteosaracoma cells of the ROS lineage are employed) and by Rabbani et al, 1988, Endocrinol., 123:2709 (which employs the line UMR-106).
# Thawed or fresh samples of human PTH(1-84) and of PTH variants obtained as described above were then evaluated for biological activity in a UMR-106 based adenylate cyclase assay and the protocol as described by Rabbini et al, 1988, Endocrinology, 123:2709, which is incorporated herein by reference. As noted, rat osteosarcoma cells of the UMR line are stimulated by PTH to produce adenylate cyclase, an enzyme which catalyzes intracellular conversion of ATP to its cylic monophosphate analogue, cAMP. In this assay therefore, PTH activity is determined by assaying radiometrically the formation of cAMP in PTH-stimulated UMR cells. The results of the assays, expressed in terms of EC50 (concentration of PTH or variant effective for half-maximal stimulation of adenylate cyclase activity), are presented in Table 1.
row,EC50 [nM],Molecule
1,2,human PTH(1-84)
2,110,B1
3,200,B2
4,400,B3
5,1200,B4
6,> 5000,B5
